Assay results from patent publication US20250277029A1 (Amgen, published 2025).

Tests used:
[1] = target: T1, GFP-fused huCB1-SMALP (human CB1 in styrene maleic acid lipoparticles) (human, UniProt P21554 1-472); test: flow cytometry, yeast-displayed IgG, GFP MFI
T1 construct: Prepared as in Luna V. et al. 2018; also called huCB1-GFP-SMALP; wtCB1-SMALP; not shown: GFP fusion

mouse CB1 [2] = target: T2, mouse CB1 (mouse, UniProt P47746 1-473); test: binding to muCB1, fold over mock (method not described)
T2 construct: also called muCB1; murine CB1
T2 sequence (P47746 whole entry): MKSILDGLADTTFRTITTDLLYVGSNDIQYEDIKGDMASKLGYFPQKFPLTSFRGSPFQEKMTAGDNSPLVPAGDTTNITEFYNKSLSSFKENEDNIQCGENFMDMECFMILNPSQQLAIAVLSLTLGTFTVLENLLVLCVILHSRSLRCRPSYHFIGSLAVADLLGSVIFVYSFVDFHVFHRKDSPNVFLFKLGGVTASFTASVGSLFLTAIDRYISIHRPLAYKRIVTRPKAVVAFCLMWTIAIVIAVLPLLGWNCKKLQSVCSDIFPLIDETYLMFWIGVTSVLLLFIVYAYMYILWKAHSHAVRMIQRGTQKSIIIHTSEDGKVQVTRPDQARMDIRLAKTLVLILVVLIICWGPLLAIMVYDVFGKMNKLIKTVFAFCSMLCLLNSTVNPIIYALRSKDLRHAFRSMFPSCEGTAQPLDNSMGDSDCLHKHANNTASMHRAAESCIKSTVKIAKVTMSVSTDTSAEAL

[3] = target: T3, human cannabinoid receptor type 2 (CB2) (human, UniProt P34972 1-360); test: binding to huCB2, fold over mock (method not described)
T3 construct: also called huCB2; full length hu CB2
T3 sequence (P34972 whole entry): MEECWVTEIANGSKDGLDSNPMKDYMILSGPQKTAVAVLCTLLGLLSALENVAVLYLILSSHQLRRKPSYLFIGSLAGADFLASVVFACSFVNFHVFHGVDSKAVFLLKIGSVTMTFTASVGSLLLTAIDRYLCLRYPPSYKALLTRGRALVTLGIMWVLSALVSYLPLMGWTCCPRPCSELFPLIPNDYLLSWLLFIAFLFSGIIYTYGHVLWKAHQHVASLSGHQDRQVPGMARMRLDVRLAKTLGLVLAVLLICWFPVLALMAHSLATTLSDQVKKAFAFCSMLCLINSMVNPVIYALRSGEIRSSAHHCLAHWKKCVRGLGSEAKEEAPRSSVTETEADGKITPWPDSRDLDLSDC

mouse CB1 [4] = target: T2, mouse CB1; test: fold over mock (Table 14)
[5] = target: T3, human cannabinoid receptor type 2 (CB2); test: fold over mock (Table 14)
[6] = target: T4, empty-ND (nanodisc without CB1); test: flow cytometry, yeast-displayed IgG, binding/display ratio
T4 construct: its only protein is the nanodisc scaffold; also called Empty Nanodisc

[7] = target: T5, His-tagged huCB1-ND (human CB1 in nanodisc) (human); test: as above
T5 construct: CB1 construct of Cell 167(3) (2016) 750-762 expressed in Sf9 cells; POPC:MSP1D1:CB1 480:8:1; also called CB1-nanodisc; huCB1-Nanodisc; not shown: histidine purification tag
T5 sequence (P21554 99-414): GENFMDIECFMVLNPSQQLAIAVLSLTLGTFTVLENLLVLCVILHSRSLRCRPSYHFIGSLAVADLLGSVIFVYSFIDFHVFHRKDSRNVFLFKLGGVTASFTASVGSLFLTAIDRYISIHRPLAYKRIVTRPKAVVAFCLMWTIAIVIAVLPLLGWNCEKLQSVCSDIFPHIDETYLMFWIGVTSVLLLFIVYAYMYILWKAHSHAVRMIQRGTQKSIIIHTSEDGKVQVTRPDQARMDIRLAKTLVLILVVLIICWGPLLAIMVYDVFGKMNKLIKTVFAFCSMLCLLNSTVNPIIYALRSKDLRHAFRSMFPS

[8] = target: T1, GFP-fused huCB1-SMALP (human CB1 in …); test: flow cytometry on IgG-displaying yeast, 100 nM GFP-fused huCB1-SMALP, GFP in BB515-A (y) vs AlexaFluor647 anti-huFab display in APC-A (x)
[9] = target: T5, His-tagged huCB1-ND (human CB1 in …); test: flow cytometry on IgG-displaying yeast, 0.2 nM His-tagged huCB1 nanodisc, APC anti-His (y) vs PE anti-huFc display (x)
[10] = target: T1, GFP-fused huCB1-SMALP (human CB1 in …); test: flow cytometry, yeast-displayed IgG, GFP MFI; remark: listed apart in the source
[11] = target: T5, His-tagged huCB1-ND (human CB1 in …); test: flow cytometry, yeast-displayed IgG, binding/display ratio; remark: listed apart in the source
[12] = target: T5, His-tagged huCB1-ND (human CB1 in …); test: flow cytometry, yeast-displayed IgG, huCB1-ND over empty-ND
huCB1 nanodisc (CB1-ND) = target: T6, huCB1 nanodisc (CB1-ND) (human, UniProt P21554 99-414); test: flow cytometry, yeast-displayed Fab, 0.2 nM CB1-ND, after background subtraction
T6 construct: The His-tagged CB1 is embedded in a POPC lipid nanodisc with MSP1D1 scaffold protein (molar ratio 480:8:1); also called huCB1-ND; #CB1-008
T6 sequence (P21554 99-414 limits assumed): as the sequence (P21554 99-414) above

[13] = target: empty nanodisc (Empty ND); test: flow cytometry, yeast-displayed Fab, 50 nM Empty ND, after background subtraction
Chain of empty nanodisc (Empty ND) (P02647 79-267): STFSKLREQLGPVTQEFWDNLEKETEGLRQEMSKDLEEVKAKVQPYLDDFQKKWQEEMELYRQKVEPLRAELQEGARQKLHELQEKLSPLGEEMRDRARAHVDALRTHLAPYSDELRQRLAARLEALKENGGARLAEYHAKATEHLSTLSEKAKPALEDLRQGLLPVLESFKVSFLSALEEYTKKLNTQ

[14] = target: T7, GFP-fused huCB1 in styrene maleic acid lipoparticles (CB1-SMALP-GFP) (human, UniProt P21554 1-472); test: flow cytometry, yeast-displayed Fab, 2.5 nM CB1-SMALP-GFP, after background subtraction
T7 construct: Prepared as described in Luna V. et al. 2018; also called huCB1-GFP-SMALP; GFP-tagged huCB1-SMALP; not shown: GFP fused to huCB1
T7 sequence (P21554 whole entry, the tested form may be a part): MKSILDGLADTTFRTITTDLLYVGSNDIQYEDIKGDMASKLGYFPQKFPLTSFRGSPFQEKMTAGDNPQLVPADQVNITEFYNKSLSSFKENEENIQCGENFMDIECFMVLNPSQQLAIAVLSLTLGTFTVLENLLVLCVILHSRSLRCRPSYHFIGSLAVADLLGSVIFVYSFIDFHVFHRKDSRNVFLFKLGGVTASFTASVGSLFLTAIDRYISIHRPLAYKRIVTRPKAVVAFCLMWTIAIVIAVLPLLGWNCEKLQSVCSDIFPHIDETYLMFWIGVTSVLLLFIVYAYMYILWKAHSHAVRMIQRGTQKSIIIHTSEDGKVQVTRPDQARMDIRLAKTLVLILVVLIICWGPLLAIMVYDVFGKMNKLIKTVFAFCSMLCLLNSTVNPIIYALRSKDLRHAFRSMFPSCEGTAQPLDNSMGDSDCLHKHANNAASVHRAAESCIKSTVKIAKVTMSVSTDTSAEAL

T1 sequence (P21554 whole entry, the tested form may be a part): as above

B1: LIBC527814-1 (antibody, IgG1, V domains shown)
VH: QVQLQESGPGLVKPSQTLSLTCTVSGGSIRRGGDYWGWIRQHPGKGLEWIGHVYQTGSTKYNPSFKDRATISVNTYKNQFSLKLSSVTAADTAVYYCARNYDTLTGYSYYYYGMDVWGQGTTVTVSS
VL: DIQMTQSPSTLSASVGDRVTITCRASQSISNYLNWYQQKPGKAPKLLIYAASSLHSGVPSRFSGSGSGTDFTLTISSLQPEDFASYYCQQYQSYPLTFGQGTKVEIKR
- 100 nM huCB1-GFP-SMALP binding (normalized to 10D10N35Y) [1]: 6.44 fold
- Fold over mock (mouse CB1 [2]): 1.2 fold
- Fold over mock [3]: 0.9 fold
- binding result (mouse CB1 [4]): no binding
- binding result [5]: no binding
- 50.0 nM Empty Nanodisc binding (relative to 10D10N35Y) [6]: 0.61 fold
- 0.200 nM huCB1-Nanodisc binding (relative to 10D10N35Y) [7]: 6.49 fold

B2: 10D10 (antibody, V domains shown)
VH: QVQLQESGPGLVKPSQTLSLTCTVSGGSIRRGGDYWSWIRQHPGKGLEWIGYIYYSGSTNYNPSLKSRATISVDTSKNQFSLKLSSVTAADTAVYYCARDYDILTGYSYYYYGMDVWGQGTTVTVSS
VL: not shown
notes: also called 10D10 antibody; 10D10 parent
- % of events in the upper right quadrant (display-positive, binding-positive) [8]: 1.48%
- % of events in the upper right quadrant (display-positive, binding-positive) [9]: 0.431%
- binding result (mouse CB1 [4]): no binding
- binding result [5]: no binding

B3: LIBC527919-1 (antibody, IgG1, V domains shown)
VH: QVQLQESGPGLVKPSQTLSLTCTVSGGSIRRGGDYWAWIRQHPGKGLEWIGHVYQTGSTAYNPNFKDRATISVNTYKNQFSLKLSSVTAADTAVYYCARNYDALSGYSYYYYGMDVWGQGTTVTVSS
VL: DIQLTQSPSSLSASVGDRVTITCRASQSIISYLNWYQQKPGKAPKLLIYAASSLRSGVPSRFSGSGSGTDFTLTISSLQPEDFATYYCQQYSNYPLTFGGGTRVEIKR
- 100 nM huCB1-GFP-SMALP binding (normalized to 10D10N35Y) [1]: 4.15 fold
- Fold over mock (mouse CB1 [2]): 1 fold
- Fold over mock [3]: 0.9 fold
- binding result (mouse CB1 [4]): no binding
- binding result [5]: no binding
- 50.0 nM Empty Nanodisc binding (relative to 10D10N35Y) [6]: 0.64 fold
- 0.200 nM huCB1-Nanodisc binding (relative to 10D10N35Y) [7]: 5.22 fold

B4: LIBC523969-1 (antibody, V domains shown)
VH: QVQLQESGPGLVKPSQTLSLTCTVSGGSIRRGGDYWSWIRQHPGKGLEWIGHIYQTGQTKYNPNLKGRATISVNTYKNQFSLKLSSVTAADTAVYYCARDYDILTGYSYYYYGMDVWGQGTTVTVSS
VL: DIVMTQSPLSLPVTPGEPASISCRSSQSLLSSTGANYLDWYLQKPGQSPQLLIYQGSNRASGVPDRFSGSGSGTDFTLKISRVEAEDVGVYYCRQAVGLPRTFGQGTKVEIKR
- 100 nM huCB1-SMALP binding (normalized to 10D10) [10]: 5.69 fold
- % of events in the upper right quadrant (display-positive, binding-positive) [8]: 27.2%
- relative binding to 0.2 nM huCB1-ND (relative to 10D10N35Y) [11]: 4.53 fold
- specific huCB1 binding (CB1 ND/Empty ND ratio) [12]: 12.8 ratio
- % of events in the upper right quadrant (display-positive, binding-positive) [9]: 46.8%

B5: LIBC681737-1 (yeast-displayed Fab) (Fab, V domains shown)
VH: QVQLQESGPGLVKPSQTLSLTCTVSGGSIRRGGDYWAWIRQHPGKGLEWIGHVYYTGSTNYNPRFKDRATISVNTYKNQFSLKLSSVTAADTAVYYCARNYDTVTGYSYYYYGMDVWGQGTTVTVSS
VL: DIQMTQSPSSLPASVGDRVTITCRASQSISSYLNWYQQKPGKAPKLLIYSARRLASGVPSRFSGSGSGTDFTLTISSLQPEDFATYYCQQYYHPPITFGGGTKVEIKR
notes: Original yeast clone without the LC P12S germline reversion; Monovalent Fab on yeast
- Relative binding fold change compared to LIBC528116 (Fab) (huCB1 nanodisc (CB1-ND)): 1.89 fold
- Relative binding fold change compared to LIBC528116 (Fab) [13]: 0.73 fold
- Relative binding fold change compared to LIBC528116 (Fab) [14]: 1.94 fold
